Results as given in patent publication US20220144956A1 (published 2022).
Where a chain is given by its changes, count along the chain named. One block for each binder: values may come before it.

Key:
[1] = target: T1, His-tagged human CD5 antigen (human, UniProt P06127 25-372); test: Octet
T1 chain: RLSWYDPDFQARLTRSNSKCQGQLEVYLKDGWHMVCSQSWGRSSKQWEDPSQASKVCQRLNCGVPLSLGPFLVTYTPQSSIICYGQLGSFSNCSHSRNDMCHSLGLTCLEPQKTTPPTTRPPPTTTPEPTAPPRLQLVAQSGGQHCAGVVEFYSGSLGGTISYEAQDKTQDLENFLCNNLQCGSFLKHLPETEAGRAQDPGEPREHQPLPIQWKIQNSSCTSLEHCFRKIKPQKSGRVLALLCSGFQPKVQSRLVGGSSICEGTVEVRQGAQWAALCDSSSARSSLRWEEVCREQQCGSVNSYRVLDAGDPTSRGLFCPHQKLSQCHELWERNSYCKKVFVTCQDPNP

[2] = target: human TGFßRII (antigen of the Octet experiments) (human, UniProt P37173 23-166)
Chain of human TGFßRII (antigen of the Octet experiments) (P37173 23-166): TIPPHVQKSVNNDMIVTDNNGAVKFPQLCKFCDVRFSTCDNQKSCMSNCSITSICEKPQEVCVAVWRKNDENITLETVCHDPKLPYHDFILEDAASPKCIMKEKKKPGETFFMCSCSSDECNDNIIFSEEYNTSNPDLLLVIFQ

[3] = target: αCD5 (Clone 8) x αTGFßRII; test: Octet
[4] = target: αCD5 (Clone 1) x αTGFßRII; test: Octet
[5] = target: αCD5 (Clone 7) x αTGFßRII; test: Octet
[6] = target: αCD5 (Clone 10) x αTGFßRII; test: Octet
[7] = target: αCD5 (Clone 3) x αTGFßRII; test: Octet
[8] = target: αCD5 (Clone 5) x αTGFßRII; test: Octet
[9] = target: αCD5 (Clone 6) x αTGFßRII; test: Octet
[10] = target: αCD5 (Clone 4) x αTGFßRII; test: Octet
[11] = target: αCD5 (Clone 9) x αTGFßRII; test: Octet
[12] = target: αCD5 (Clone 11) x αTGFßRII; test: Octet
[13] = target: Unstimulated Cyno CD8 T cells (cynomolgus monkey); test: FACS cell binding; CD8 T cells; avid
[14] = target: Unstimulated Cyno CD3+ cells (cynomolgus monkey); test: FACS cell binding; CD3+ cells; avid
[15] = target: Unstimulated Cyno CD4 T cells (cynomolgus monkey); test: FACS cell binding; CD4 T cells; avid

B3: XENP35399 (bispecific antibody)
heavy: EVQLVESGGGVVQPGRSLRLSCTFSGFSLSTSGMGVGWIRQAPGKGLEWVAHIWWDDDVYYNPSLKSRLTITKDASTDTVYMELSSLRSEDTAVYYCVRRRATGTGFDYWGQGTLVTVSSASTKGPSVFPLAPSSKSTSGGTAALGCLVKDYFPEPVTVSWNSGALTSGVHTFPAVLQSSGLYSLSSVVTVPSSSLGTQTYICNVNHKPSDTKVDKKVEPKSCDKTHTCPPCPAPPVAGPSVFLFPPKPKDTLMISRTPEVTCVVVDVKHEDPEVKFNWYVDGVEVHNAKTKPREEEYNSTYRVVSVLTVLHQDWLNGKEYKCKVSNKALPAPIEKTISKAKGQPREPQVYTLPPSREEMTKNQVSLTCDVSGFYPSDIAVEWESDGQPENNYKTTPPVLDSDGSFFLYSKLTVDKSRWEQGDVFSCSVMHEALHNHYTQKSLSLSPGK
scFv-Fc: QLQVQESGPGLVKPSETLSLTCTVSGGSISNSYFSWGWIRQPPGKGLEWIGSFYYGEKTYYNPSLKSRATISIDTSKSQFSLKLSSVTAADTAVYYCPRGPTVIRGVIDSWGQGTLVTVSSGKPGSGKPGSGKPGSGKPGSEIVLTQSPATLSLSPGERATLSCRASQSVRSYLAWYQQKPGQAPRLLIYDASNRATGIPARFSGSGSGTDFTLTISSLEPEDFAVYYCQQRSNWPPTFGQGTKVEIKEPKSSDKTHTCPPCPAPPVAGPSVFLFPPKPKDTLMISRTPEVTCVVVDVKHEDPEVKFNWYVDGVEVHNAKTKPREEQYNSTYRVVSVLTVLHQDWLNGKEYKCKVSNKALPAPIEKTISKAKGQPREPQVYTLPPSREQMTKNQVKLTCLVKGFYPSDIAVEWESNGQPENNYKTTPPVLDSDGSFFLYSKLTVDKSRWQQGNVFSCSVMHEALHNHYTQKSLSLSPGK
light: NIVMTQSPSSLSASVGDRVTITCQASQDVGTAVAWYQQKPDQSPKLLIYWTSTRHTGVPDRFTGSGSGTDFTLTISSLQPEDIATYFCHQYNSYNTFGSGTKLEIKRTVAAPSVFIFPPSDEQLKSGTASVVCLLNNFYPREAKVQWKVDNALQSGNSQESVTEQDSKDSTYSLSSTLTLSKADYEKHKVYACEVTHQGLSSPVTKSFNRGEC
Kd [1]: 1.69 nM | Kd [2]: 0.97 nM

B5: Human (receptor)
chain: T1 chain
Kd [3]: 8.72 nM | Kd [4]: 7.91 nM | Kd [5]: 2.05 nM | Kd [6]: 1.24 nM | Kd [7]: 1.53 nM | Kd [8]: 12.9 nM | Kd [9]: 11.1 nM | Kd [10]: 7.03 nM | Kd [11]: 2.99 nM | Kd [12]: 18.6 nM

B6: XENP35401 anti-CD5 clone 5D7 Bivalent (antibody, V domains shown)
VH: EVQLVESGGGVVQPGRSLRLSCTFSGFSLSTSGMGVGWIRQAPGKGLEWVAHIWWDDDVYYNPSLKSRLTITKDASTDTVYMELSSLRSEDTAVYYCVRRRATGTGFDYWGQGTLVTVSS
VL: NIVMTQSPSSLSASVGDRVTITCQASQDVGTAVAWYQQKPDQSPKLLIYWTSTRHTGVPDRFTGSGSGTDFTLTISSLQPEDIATYFCHQYNSYNTFGSGTKLEIKR
EC50 [13]: 0.415 µg/mL | EC50 [14]: 0.508 µg/mL | EC50 [15]: 0.584 µg/mL

Further lines, results first:

Kd [1]: 2.75 nM
B1: XENP37388 (bispecific antibody)
heavy: QVTLKESGAELVRPGASVKLSCKASGYSFTSYWMNWVKQRPGQGLEWIGMIHPSDSETRLNQKFKDKATLTVDKSSSTAYMQLSSPTSEDSAVYYCARWGDHDDAMDFWGQGTMVTVSSASTKGPSVFPLAPSSKSTSGGTAALGCLVKDYFPEPVTVSWNSGALTSGVHTFPAVLQSSGLYSLSSVVTVPSSSLGTQTYICNVNHKPSDTKVDKKVEPKSCDKTHTCPPCPAPPVAGPSVFLFPPKPKDTLMISRTPEVTCVVVDVKHEDPEVKFNWYVDGVEVHNAKTKPREEEYNSTYRVVSVLTVLHQDWLNGKEYKCKVSNKALPAPIEKTISKAKGQPREPQVYTLPPSREEMTKNQVSLTCDVSGFYPSDIAVEWESDGQPENNYKTTPPVLDSDGSFFLYSKLTVDKSRWEQGDVFSCSVMHEALHNHYTQKSLSLSPGK
scFv-Fc: B3 scFv-Fc
light: DIVLTQSPASLSASVGESVTITCRPSENIYGYFAWYQQRQGKSPQLLVYNAKTLAEGVPSRFSGSGSGTHFSLKINSLQPEDFGTYYCQHHYGTPFTFGPGTKVDIKRTVAAPSVFIFPPSDEQLKSGTASVVCLLNNFYPREAKVQWKVDNALQSGNSQESVTEQDSKDSTYSLSSTLTLSKADYEKHKVYACEVTHQGLSSPVTKSFNRGEC

Kd [1]: 6.67 nM
B2: XENP37385 (bispecific antibody)
heavy: EVQLKESGAELVRPGGSVKISCKGSGYTFTNFAIHWVKQSHIKTLEWIGLISTSSGDVSYNQKFKDKATMTVDKSSSTAYMELARLTSEDSAIYYCARHYGANNYFDYWGQGTLVTVSSASTKGPSVFPLAPSSKSTSGGTAALGCLVKDYFPEPVTVSWNSGALTSGVHTFPAVLQSSGLYSLSSVVTVPSSSLGTQTYICNVNHKPSDTKVDKKVEPKSCDKTHTCPPCPAPPVAGPSVFLFPPKPKDTLMISRTPEVTCVVVDVKHEDPEVKFNWYVDGVEVHNAKTKPREEEYNSTYRVVSVLTVLHQDWLNGKEYKCKVSNKALPAPIEKTISKAKGQPREPQVYTLPPSREEMTKNQVSLTCDVSGFYPSDIAVEWESDGQPENNYKTTPPVLDSDGSFFLYSKLTVDKSRWEQGDVFSCSVMHEALHNHYTQKSLSLSPGK
scFv-Fc: B3 scFv-Fc
light: EIVLTQSPTIMSASPGEQVTMTCRTNSSVSSSYLHWYQQKSGASPKLWIYGTSNLASGVPTRFSGSGSGTSYSLTISSVEAGDAATYFCQQYSGYPLTFGGGTKVEIKRTVAAPSVFIFPPSDEQLKSGTASVVCLLNNFYPREAKVQWKVDNALQSGNSQESVTEQDSKDSTYSLSSTLTLSKADYEKHKVYACEVTHQGLSSPVTKSFNRGEC

Kd [2]: 6.1 nM
B4: XENP36132 (bispecific antibody)
heavy: B3 heavy
scFv-Fc: B3 scFv-Fc with S35Y, V103M
light: B3 light
